For data set [1], the target named is T1, alpha-thrombin (active site blocked with fluorescein-PPACK) (Homo sapiens, UniProt P00734;P00734 P00734:328-363,P00734:364-622). Briefly: fluorometric titration, 20 mM Tris, 150 mM NaCl, pH 7.4; exosite 2.
The target in data set [2] is T2, thrombin (IIa), active (UniProt P00734;P00734 P00734:328-363,P00734:364-622). Briefly: inhibition; inhibition of coagulation.
In data set [3] the target is T1, alpha-thrombin (active site blocked …). Briefly: fluorometric titration; duplicate measurement gave 99 nM; 20 mM Tris, 150 mM NaCl, pH 7.4.
For data set [4] the target is unchanged. Briefly: fluorometric titration, 20 mM Tris, 150 mM NaCl, pH 7.4; exosite 1.
Data set [5] addresses T2, thrombin (IIa), active. The data set is described as follows: inhibition; kD in the hydrolysis of Chromozym-thrombin.
Data set [6] addresses T1, alpha-thrombin (active site blocked …). Briefly: fluorometric titration; duplicate measurement gave 110 nM; 20 mM Tris, 150 mM NaCl, pH 7.4.
For data set [7] the target is unchanged. The data set is described as follows: fluorometric titration, 492/522 nm, 100 nM thrombin, 20 mM Tris, 150 mM NaCl, pH 7.4; exosite 1.

In the case of AGTCCGTGGTAGGGCAGGTTGGGGTGACT (ssDNA, 3'-biotin (biotin TEG)) [ODN 2e], binding in data set [1] was characterised by a dissociation constant (Kd) of 85 nM.
In the case of AGTCCGTGGTAGGGCAGGTTGGGGTGACT (ssDNA) [ODN 2a], the Kd (in general, a measure of binding affinity in units of concentration) in data set [1] turned out to be 16.5 nM. This Kd is about 5.2-fold lower than that of the molecule before.
Turning to GGTTGGTGTGGTTGG (ssDNA, 3'-biotin-streptavidin) [ODN 1f], in the data set with thrombin (IIa), active [2], the Ki (commonly the dissociation constant of the complex between target and ligand, obtained from inhibition or displacement) is about 100 nM. Further, the Kd in data set [3] is 41 nM.
For the molecule GGTTGGTGTGGTTGG (ssDNA, 3'-biotin (biotin TEG)) [ODN 1e], in data set [4], the Kd is 55 nM.
As for AGTCCGTGGTAGGGCAGGTTGGGGTGACT (ssDNA, 3'-biotin-streptavidin) [ODN 2f], the Kd was 10.2 nM with thrombin (IIa), active [5] and 89 nM in data set [6].
Regarding GGTTGGTGTGGTTGG (ssDNA) [ODN 1a], the Kd in data set [7] was found to be 45 nM. This lies in the double-digit nanomolar range.
